Test results from the supplement of paper PMC9170038.

Tested on: MS2 coat protein
Test: apparent KD of MS2 coat protein; designed switch direction (-1 OFF switch, 1 ON switch): -1; higher = weaker reporter binding
How it was run: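 SNAP-549-labelled MS2 coat protein was titrated, doubling from 0.7 or 1.5 nM to 3 µM, over designed RNA switches transcribed on Illumina chips by stalled E. coli RNA polymerase. Runs were done without input, with 200 uM small-molecule ligand, or with an oligonucleotide input. Apparent KD is the per-design median over clusters of curve-fitted normalised fluorescence.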

[1] = input ligand: microRNA oligo, concentration not stated
[2] = Eterna round: R95, input ligand: FMN 200 uM
[3] = Eterna round: R95, input ligand: microRNA oligo, concentration not stated
[4] = Eterna round: R95, input ligand: none

Sequence: UUAUUAAUUAAUAUUAUAAGAUCACAUGAGGAUCACCCAUGUCAGGAUAUCAGCUCGAUUAGAGCUGAGAAGGGACAAAUAAUA [ExNG3/15-B1] (Eterna round: R96, puzzle: Exclusion NG 3)
- apparent KD of MS2 coat protein (input ligand: FMN 200 uM): 1450 nM
- apparent KD of MS2 coat protein [1]: 157 nM
- apparent KD of MS2 coat protein (input ligand: none): 268 nM

Sequence: GCAGCAUAGUCGGAAACGACAGAACAUGAGGAUCACCCAUGUCAGGAUAUGGUCUGGAUUACAGGCCAGAAGGGACAAAGCUGC [Eli exng3 - 008] (Eterna round: R96, puzzle: Exclusion NG 3)
- apparent KD of MS2 coat protein (input ligand: FMN 200 uM): 19.6 nM
- apparent KD of MS2 coat protein [1]: 14.1 nM
- apparent KD of MS2 coat protein (input ligand: none): 19.8 nM

Sequence: CAAUAACAAGCGAGAUCCUACAUGAGGAUCACCCAUGUGCUCGUCUUAUAAAGUACUAUCACGAAAGUGAUAGUACA [Mat - Sensor v3 - turn-off var 1 - Eli Mod - D63] (puzzle: Sensor v3, turn-off variant 1)
- apparent KD of MS2 coat protein [2]: 19.6 nM
- apparent KD of MS2 coat protein [3]: 34 nM
- apparent KD of MS2 coat protein [4]: 14.9 nM

Sequence: AAUUUACAUGAGGAUCACCCAUGUGAGGAUAUAUAAAUAUAUAUGUUAUUGUAUGUUUGUAGAAGGCGCGUGAU [JR_Exc1_Sub031] (Eterna round: R97, puzzle: Exclusion 1)
- apparent KD of MS2 coat protein (input ligand: FMN 200 uM): 145 nM
- apparent KD of MS2 coat protein (input ligand: none): 83.3 nM

Sequence: GGUGCGUUUGUGAGGAUAUGCUGGUCCUUGGUUCGGCAGAAGGCACAUGAGGAUCACCCAUGUGGUGUCGUGCC [salish99_Bmod_Ex4_045] (puzzle: Brourd's mod of Exclusion 4)
- apparent KD of MS2 coat protein [3]: 33.1 nM

Sequence: GUCAUCAAACAUGGGAUAAACAUGAGGAUCACCCAUGUUUACAAGUUUUUUGCUCGUCUUAUAAUAAGUUUGAUGAC [Antenna 8 - Jieux - Sensor, turn-off variant 1] (Eterna round: R97, puzzle: Sensor, turn-off variant 1)
- apparent KD of MS2 coat protein (input ligand: FMN 200 uM): 14 nM
- apparent KD of MS2 coat protein (input ligand: none): 15 nM

Sequence: GUGUAACUACACGGGCUCAACAUGAGGAUCACCCAUGUCAUACACGCAAGCUCUUUGCUUGUCUUAUCUGUCCGUGA [Erriusti] (puzzle: Sensor v3, turn-off variant 1)
- apparent KD of MS2 coat protein [2]: 16.8 nM
- apparent KD of MS2 coat protein [3]: 16.6 nM
- apparent KD of MS2 coat protein [4]: 14.5 nM

Sequence: AUAAUGUGAGGAUAUCGAGACUACUGCUGCGGCAGUAGUCUCGAGAAGGCACAUGAGGAUCACCCAUGUGAUCA [E4/2-A3] (Eterna round: R97, puzzle: Exclusion 4)
- apparent KD of MS2 coat protein (input ligand: FMN 200 uM): 89.7 nM
- apparent KD of MS2 coat protein (input ligand: none): 1590 nM

Sequence: CUUAGACAUGAGGAUCACCCAUGUGAGGAUAUGAAAUUAAUUAAUUAUUAAUUAUUAAUCAGAAGGCACAUAUG [Mat - Mod of Hyphema D38] (puzzle: Exclusion 1)
- apparent KD of MS2 coat protein [2]: 79.8 nM
- apparent KD of MS2 coat protein [3]: 43.6 nM
- apparent KD of MS2 coat protein [4]: 41.3 nM

Sequence: CAUGAUCUUCGGAUCAUGUACAUGAGGAUCACCCAUGUGACGAGUAUAUCUUCAAACAAGCUUUUUGCUCGUCUUAU [Sensor v3 - Turn-off variant 1 - 23] (puzzle: Sensor v3, turn-off variant 1)
- apparent KD of MS2 coat protein [2]: 41.6 nM
- apparent KD of MS2 coat protein [3]: 49.8 nM
- apparent KD of MS2 coat protein [4]: 41.6 nM

Sequence: GGAUCGAGUGUGAGGAUAUGCUGGUCCUUGGAUCAGCAGAAGGCACAUGAGGAUCACCCAUGUGAUACCGAUCC [Eli bmx4 4.67] (Eterna round: R97, puzzle: Brourd's mod of Exclusion 4)
- apparent KD of MS2 coat protein (input ligand: FMN 200 uM): 736 nM
- apparent KD of MS2 coat protein (input ligand: none): 71 nM

Sequence: UAUUAAUGCAAGGAUAUGCUAUUAAUUUAUUUUGCAGAAGGUGCAACAUGAGGAUCACCCAUGUUGGAGGGUAU [JR_E6_Sub028] (puzzle: Exclusion 6)
- apparent KD of MS2 coat protein [3]: 19.3 nM

Sequence: GUGGCACAUGAGGAUCACCCAUGUCAGGAUAUCGCGUGGUUUUUUGCGGCCGCGCGCGCGAGAAGGGACGUCUU (puzzle: Exclusion 1)
- apparent KD of MS2 coat protein [3]: 31.1 nM

Sequence: CGGUACUGAGGAUAUACAUGAGGAUCACCCAUGUGUACUAGCUAGCGUACUGGCAUUAGUAGAAGGCGGUGCUG [JL-ex3-3.20 Brourd mod] (puzzle: Exclusion 3)
- apparent KD of MS2 coat protein [2]: 19.8 nM
- apparent KD of MS2 coat protein [3]: 11.5 nM
- apparent KD of MS2 coat protein [4]: 13.2 nM

Sequence: UUGUUCAGAGGAUAUACAUGAGGAUCACCCAUGUGUUUCAGCUAGGAGACUAGCGAAAGUAGAAGGCUGUACUC [salish99_ex3_r4_016] (Eterna round: R97, puzzle: Exclusion 3)
- apparent KD of MS2 coat protein (input ligand: FMN 200 uM): 30.5 nM
- apparent KD of MS2 coat protein (input ligand: none): 25.6 nM

Sequence: AAUUUAACAUAGGAUAUCGAAUUUAUUAUUUAACGAGAAGGAUGAACAUGAGGAUCACCCAUGUGGUAUCAUGG [Mat - Exclusion 6 - JL Mod - D22] (puzzle: Exclusion 6)
- apparent KD of MS2 coat protein [2]: 100 nM
- apparent KD of MS2 coat protein [3]: 109 nM
- apparent KD of MS2 coat protein [4]: 174 nM

Sequence: UUUUAACAUGAGGAUCACCCAUGUGAGGAUAUCGUUUUUUUUAUUAAUAUUAAUAAAACGAGAAGGCACAUUUU [JMF 18] (puzzle: Exclusion 1)
- apparent KD of MS2 coat protein [3]: 140 nM

Sequence: UCCUUACUGGUCAGGAUAUACAGUCGCGGGUGGGUGUAGAAGGGACAUGAGGAUCACCCAUGUACGUUACAUCC [alecazam54h] (Eterna round: R97, puzzle: Brourd's mod of Exclusion 4)
- apparent KD of MS2 coat protein (input ligand: FMN 200 uM): 19.7 nM
- apparent KD of MS2 coat protein (input ligand: none): 19.9 nM

Sequence: AUAAUGUCAGGAUAUCGAACUUACUACCUCGGUAGUAAGUUCGAGAAGGGACAUGAGGAUCACCCAUGUGAUCA [E4/1-A5] (Eterna round: R97, puzzle: Exclusion 4)
- apparent KD of MS2 coat protein (input ligand: FMN 200 uM): 68.5 nM
- apparent KD of MS2 coat protein (input ligand: none): 195 nM

Sequence: CUUAGACAUGAGGAUCACCCAUGUGAGGAUAUGAUGCGAAUAAGUAAGUAAUAAAGCAUCAGAAGGCACAUAUG [Mat - Mod of Hyphema D28] (puzzle: Exclusion 1)
- apparent KD of MS2 coat protein [2]: 235 nM
- apparent KD of MS2 coat protein [3]: 186 nM
- apparent KD of MS2 coat protein [4]: 222 nM

Sequence: AUAAAACGUGUAGGAUAUGCGUGGCGAAGCUAUGCAGAAGGACAUGAGGAUCACCCAUGUUCUAGCGUCUGCGUACAGAUGCUA [JL eng1 1.35 mod 4] (Eterna round: R96, puzzle: Exclusion NG 1)
- apparent KD of MS2 coat protein (input ligand: FMN 200 uM): 18.2 nM
- apparent KD of MS2 coat protein [1]: 10.9 nM
- apparent KD of MS2 coat protein (input ligand: none): 14.8 nM

Sequence: CUGUGCACGCUGCGAUCCUACAUGAGGAUCACCCAUGUGGUCUGGUGGCGUGGGUCACCGGACUUGGCUCGUCUUGG [salish99_S_TOV1_R5_078] (Eterna round: R97, puzzle: Sensor, turn-off variant 1)
- apparent KD of MS2 coat protein (input ligand: FMN 200 uM): 129 nM
- apparent KD of MS2 coat protein (input ligand: none): 150 nM

Sequence: GCCUGGGCAGGAUAUACAUGAGGAUCACCCAUGUCUGUUGACCGAACUCCGGAUAUAUGUAGAAGGGUCGCAGA [Eternabot (L1) Solution 100] (Eterna round: R97, puzzle: Exclusion 3)
- apparent KD of MS2 coat protein (input ligand: FMN 200 uM): 55.1 nM
- apparent KD of MS2 coat protein (input ligand: none): 49.8 nM

Sequence: CAGUACUGAGGAUAUACAUGAGGAUCACCCAUGUGUUCCAGCUAGGAAACUUGCAAAAGUAGAAGGCAGUACUG [salish99_ex3_r3_093x] (puzzle: Exclusion 3)
- apparent KD of MS2 coat protein [3]: 11.9 nM

Sequence: CUCGUGCAGCAAAGCUGUACGAGUACAUGAGGAUCACCCAUGUAGGAUAUGGUACGCAAAGCGUGCCAGAAGGACGUGAGUUAG [Mat - Exclusion NG 3 - Mod of JL - D95] (Eterna round: R96, puzzle: Exclusion NG 3)
- apparent KD of MS2 coat protein (input ligand: FMN 200 uM): 171 nM
- apparent KD of MS2 coat protein [1]: 37.6 nM
- apparent KD of MS2 coat protein (input ligand: none): 59 nM

Sequence: AAAUAGCAUGAGGAUAUUGGACUGGAUUCAGUGCGAGAAGGCAUGACAUGAGGAUCACCCAUGUUGUGUUGGGA [EX6 #9] (Eterna round: R97, puzzle: Exclusion 6)
- apparent KD of MS2 coat protein (input ligand: FMN 200 uM): 42.6 nM
- apparent KD of MS2 coat protein (input ligand: none): 17 nM

Sequence: CAGUACUGAGGAUAUACAUGAGGAUCACCCAUGUGAGAAAUACUAGUGAGGUCGAUUAGUAGAAGGCAGUACUG [Mat - Exclusion 3 - Eli Mod - D31] (Eterna round: R97, puzzle: Exclusion 3)
- apparent KD of MS2 coat protein (input ligand: FMN 200 uM): 761 nM
- apparent KD of MS2 coat protein (input ligand: none): 35.4 nM

Sequence: GUCCGACAUGAGGAUCACCCAUGUGAGGAUAUGCGAUUAGCUGCUAGGUAGUUAGUAUGUAGAAGGCGCAUGAA [EX1 #76] (Eterna round: R97, puzzle: Exclusion 1)
- apparent KD of MS2 coat protein (input ligand: FMN 200 uM): 21.9 nM
- apparent KD of MS2 coat protein (input ligand: none): 24.5 nM

Sequence: GAGAAGGUAGGAUAUACGAAUAAAUAGGGUAGUAAUAAUACACAUGAGGAUCACCCAUGUAGAAGGACCAAGAG [Mat - Exclusion 2 - Mod of my Tesla design - D39] (puzzle: Exclusion 2)
- apparent KD of MS2 coat protein [2]: 38.1 nM
- apparent KD of MS2 coat protein [3]: 22.8 nM
- apparent KD of MS2 coat protein [4]: 25 nM

Sequence: AACAACUCUGUGAGGAUAUGCAAUUGUUGAUCAAGGCAGAAGGCACAUGAGGAUCACCCAUGUUCCUACAAGGG [Reatanan] (puzzle: Brourd's mod of Exclusion 4)
- apparent KD of MS2 coat protein [3]: 46.5 nM

Sequence: UCGCUCCGUGUAGGAUAUCGCCGUUCUACUCGGCGAGAAGGACAUGAGGAUCACCCAUGUAUGUUAUUAUCACGUGUGGCGCGC [Design 54] (Eterna round: R96, puzzle: Exclusion NG 1)
- apparent KD of MS2 coat protein [1]: 14.2 nM

Sequence: AGUAUGCGUGUCAGGAUAUCAAUGGCUCUACCCAAUGAGAAGGGACAUGAGGAUCACCCAUGUAUGAGCCUAAA [Zatelaveus] (puzzle: Brourd's mod of Exclusion 4)
- apparent KD of MS2 coat protein [2]: 15.9 nM
- apparent KD of MS2 coat protein [3]: 14.1 nM
- apparent KD of MS2 coat protein [4]: 14.5 nM

Sequence: AAAUUGCUAGAGGAUAUCGGAUAGAAUUUAUUACGAGAAGGUUAGACAUGAGGAUCACCCAUGUUCUGUUGGGA [EX6 #23] (Eterna round: R97, puzzle: Exclusion 6)
- apparent KD of MS2 coat protein (input ligand: FMN 200 uM): 70.1 nM
- apparent KD of MS2 coat protein (input ligand: none): 29.1 nM

Sequence: CUGAGCAGACGAAGAUCCAACAUGAGGAUCACCCAUGUCUCAAAAGCUUUUUGCUUGUCUUAUCCUUCCCUGCUCUC [Isbies] (puzzle: Sensor v3, turn-off variant 1)
- apparent KD of MS2 coat protein [2]: 14.3 nM
- apparent KD of MS2 coat protein [3]: 207 nM
- apparent KD of MS2 coat protein [4]: 12.9 nM
